# Source: patent US20160200782A1 (MOERAE MATRIX, published 2016)
# Tests used:
# Assay in all cases: cell-based or functional assay
# [1] = target: JAK2(h) (human, UniProt O60674 808-1132, limits assumed)
# [2] = target: WNK3(h) (human, UniProt Q9BYP7 1-434, limits assumed)
# [3] = target: T1, DYRK2(h) (human, UniProt Q92630 1-601, limits assumed)
# T1 sequence (looked up): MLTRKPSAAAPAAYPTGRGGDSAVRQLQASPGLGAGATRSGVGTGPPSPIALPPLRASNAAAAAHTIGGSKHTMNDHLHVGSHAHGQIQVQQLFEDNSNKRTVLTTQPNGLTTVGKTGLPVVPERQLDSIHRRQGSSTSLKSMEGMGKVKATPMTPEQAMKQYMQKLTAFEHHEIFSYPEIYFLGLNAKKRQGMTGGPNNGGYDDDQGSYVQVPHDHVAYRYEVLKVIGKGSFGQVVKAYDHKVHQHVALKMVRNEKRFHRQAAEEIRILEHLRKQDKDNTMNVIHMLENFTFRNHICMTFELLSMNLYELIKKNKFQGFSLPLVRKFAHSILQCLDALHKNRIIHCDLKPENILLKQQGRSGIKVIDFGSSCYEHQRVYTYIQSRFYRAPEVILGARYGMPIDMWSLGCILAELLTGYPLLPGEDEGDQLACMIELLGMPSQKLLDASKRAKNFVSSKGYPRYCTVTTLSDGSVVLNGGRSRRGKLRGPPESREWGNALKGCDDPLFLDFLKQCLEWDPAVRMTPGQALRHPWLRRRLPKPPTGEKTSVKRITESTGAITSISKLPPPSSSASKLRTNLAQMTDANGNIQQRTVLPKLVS
# [4] = target: CK2(h) (human)
# [5] = target: MST3(h) (human, UniProt Q9Y6E0 1-443, limits assumed)
# [6] = target: TrkB(h) (human, UniProt Q16620 455-822, limits assumed)
# [7] = target: cKit(D816V)(h) (human, UniProt P10721 544-976, limits assumed)
# [8] = target: T2, eEF-2K(h) (human, UniProt O00418 1-725, limits assumed)
# T2 sequence (looked up): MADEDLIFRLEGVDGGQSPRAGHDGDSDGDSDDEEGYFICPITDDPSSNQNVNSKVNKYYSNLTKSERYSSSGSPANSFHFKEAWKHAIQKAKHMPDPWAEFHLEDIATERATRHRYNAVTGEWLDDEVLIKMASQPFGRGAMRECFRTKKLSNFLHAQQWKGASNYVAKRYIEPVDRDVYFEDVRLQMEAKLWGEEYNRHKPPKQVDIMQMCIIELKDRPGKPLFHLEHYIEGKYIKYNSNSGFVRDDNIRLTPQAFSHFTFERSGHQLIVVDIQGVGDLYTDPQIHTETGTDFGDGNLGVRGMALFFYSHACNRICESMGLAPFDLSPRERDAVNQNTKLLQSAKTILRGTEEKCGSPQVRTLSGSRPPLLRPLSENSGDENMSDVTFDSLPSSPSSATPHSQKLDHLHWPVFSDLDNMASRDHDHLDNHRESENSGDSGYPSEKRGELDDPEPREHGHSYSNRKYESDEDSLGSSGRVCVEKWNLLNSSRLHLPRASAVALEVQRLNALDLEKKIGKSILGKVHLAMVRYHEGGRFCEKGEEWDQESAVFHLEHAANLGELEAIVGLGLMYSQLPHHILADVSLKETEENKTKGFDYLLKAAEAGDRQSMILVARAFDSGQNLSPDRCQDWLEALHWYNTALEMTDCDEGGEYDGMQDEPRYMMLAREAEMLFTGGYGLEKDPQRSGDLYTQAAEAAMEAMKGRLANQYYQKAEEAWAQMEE
# [9] = target: T3, GCK(h) (human, UniProt Q12851 1-820, limits assumed)
# T3 sequence (looked up): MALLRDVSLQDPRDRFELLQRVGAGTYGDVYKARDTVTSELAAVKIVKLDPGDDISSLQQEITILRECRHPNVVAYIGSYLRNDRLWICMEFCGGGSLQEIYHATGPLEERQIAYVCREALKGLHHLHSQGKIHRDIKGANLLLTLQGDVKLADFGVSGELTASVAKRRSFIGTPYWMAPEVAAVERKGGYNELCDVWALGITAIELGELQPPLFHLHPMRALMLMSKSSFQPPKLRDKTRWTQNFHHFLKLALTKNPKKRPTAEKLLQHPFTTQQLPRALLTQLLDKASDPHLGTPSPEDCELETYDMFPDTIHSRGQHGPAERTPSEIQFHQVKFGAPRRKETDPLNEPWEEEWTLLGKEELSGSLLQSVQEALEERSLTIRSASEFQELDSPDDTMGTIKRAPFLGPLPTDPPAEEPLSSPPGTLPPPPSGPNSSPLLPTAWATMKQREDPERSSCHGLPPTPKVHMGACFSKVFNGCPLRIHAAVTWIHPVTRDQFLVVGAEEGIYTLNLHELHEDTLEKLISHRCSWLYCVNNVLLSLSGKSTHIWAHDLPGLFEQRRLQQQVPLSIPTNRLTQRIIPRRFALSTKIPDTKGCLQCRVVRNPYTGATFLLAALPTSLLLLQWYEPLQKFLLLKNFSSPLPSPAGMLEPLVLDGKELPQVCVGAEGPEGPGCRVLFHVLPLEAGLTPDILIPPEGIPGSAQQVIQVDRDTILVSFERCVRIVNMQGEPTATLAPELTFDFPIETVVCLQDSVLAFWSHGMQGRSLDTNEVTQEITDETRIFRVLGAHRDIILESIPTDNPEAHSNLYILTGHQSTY
# [10] = target: Met(Y1248H)(h) (human, UniProt P08581-2 974-1408, limits assumed)
# [11] = target: CDK5/p35(h) (human, UniProt Q00535 1-292; Q15078 1-307)
# [12] = target: PKCγ(h) (human, UniProt P05129 1-697)
# [13] = target: CDK2/cyclinE(h) (human, UniProt P24941 1-298; P24941 1-298)
# [14] = target: MRCKα(h) (human, UniProt Q5VT25 1-473, limits assumed)
# Further: test concentration or dose not given here.
# Chain of MST3(h) (Q9Y6E0 whole entry): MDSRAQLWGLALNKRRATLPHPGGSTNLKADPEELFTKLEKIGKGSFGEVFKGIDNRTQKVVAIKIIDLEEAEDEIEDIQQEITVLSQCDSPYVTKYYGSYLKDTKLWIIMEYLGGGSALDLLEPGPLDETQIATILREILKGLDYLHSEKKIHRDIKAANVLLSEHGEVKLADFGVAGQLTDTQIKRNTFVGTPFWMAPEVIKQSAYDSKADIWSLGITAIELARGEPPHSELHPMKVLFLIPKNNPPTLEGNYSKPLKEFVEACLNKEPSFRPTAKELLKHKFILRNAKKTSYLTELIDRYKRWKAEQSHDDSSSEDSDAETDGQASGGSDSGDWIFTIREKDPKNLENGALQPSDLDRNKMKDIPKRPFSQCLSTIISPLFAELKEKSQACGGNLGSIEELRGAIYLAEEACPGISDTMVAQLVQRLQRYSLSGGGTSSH
# Chain of WNK3(h) (Q9BYP7 1-434 limits assumed): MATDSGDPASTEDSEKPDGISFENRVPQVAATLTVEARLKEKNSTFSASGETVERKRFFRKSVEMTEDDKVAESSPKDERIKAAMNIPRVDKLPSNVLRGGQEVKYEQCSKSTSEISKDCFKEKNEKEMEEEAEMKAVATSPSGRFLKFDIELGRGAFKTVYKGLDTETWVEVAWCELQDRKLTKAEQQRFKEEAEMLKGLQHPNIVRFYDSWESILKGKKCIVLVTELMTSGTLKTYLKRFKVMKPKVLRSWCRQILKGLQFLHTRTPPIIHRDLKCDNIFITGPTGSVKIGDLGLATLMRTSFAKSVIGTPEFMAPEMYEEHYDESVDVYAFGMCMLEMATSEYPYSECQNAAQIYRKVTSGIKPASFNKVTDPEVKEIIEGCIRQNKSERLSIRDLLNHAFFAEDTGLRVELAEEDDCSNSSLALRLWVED
# Chain of TrkB(h) (Q16620 455-822 limits assumed): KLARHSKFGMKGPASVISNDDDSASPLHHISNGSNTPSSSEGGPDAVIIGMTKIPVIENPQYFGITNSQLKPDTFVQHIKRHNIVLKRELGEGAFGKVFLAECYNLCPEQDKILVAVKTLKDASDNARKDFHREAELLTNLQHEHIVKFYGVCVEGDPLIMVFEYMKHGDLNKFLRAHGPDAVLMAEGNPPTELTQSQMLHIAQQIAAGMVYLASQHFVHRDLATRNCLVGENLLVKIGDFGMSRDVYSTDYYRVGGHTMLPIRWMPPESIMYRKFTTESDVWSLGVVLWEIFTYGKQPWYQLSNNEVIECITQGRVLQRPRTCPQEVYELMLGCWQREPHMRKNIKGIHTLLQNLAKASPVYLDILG
# Chain of MRCKα(h) (Q5VT25 1-473 limits assumed): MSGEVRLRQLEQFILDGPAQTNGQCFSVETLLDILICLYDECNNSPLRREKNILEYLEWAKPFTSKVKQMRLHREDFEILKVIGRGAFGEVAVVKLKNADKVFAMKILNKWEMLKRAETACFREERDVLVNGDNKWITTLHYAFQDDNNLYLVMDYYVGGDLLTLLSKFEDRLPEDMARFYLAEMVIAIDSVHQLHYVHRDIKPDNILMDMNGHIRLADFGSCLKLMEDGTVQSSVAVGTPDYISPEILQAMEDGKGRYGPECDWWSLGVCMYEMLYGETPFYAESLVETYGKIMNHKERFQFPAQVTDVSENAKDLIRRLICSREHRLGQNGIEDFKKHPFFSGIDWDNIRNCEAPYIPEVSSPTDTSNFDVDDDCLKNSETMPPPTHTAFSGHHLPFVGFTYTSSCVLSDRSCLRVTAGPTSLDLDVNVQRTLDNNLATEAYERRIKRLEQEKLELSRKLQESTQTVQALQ
# Chain of cKit(D816V)(h) (P10721 544-976 D816V limits assumed): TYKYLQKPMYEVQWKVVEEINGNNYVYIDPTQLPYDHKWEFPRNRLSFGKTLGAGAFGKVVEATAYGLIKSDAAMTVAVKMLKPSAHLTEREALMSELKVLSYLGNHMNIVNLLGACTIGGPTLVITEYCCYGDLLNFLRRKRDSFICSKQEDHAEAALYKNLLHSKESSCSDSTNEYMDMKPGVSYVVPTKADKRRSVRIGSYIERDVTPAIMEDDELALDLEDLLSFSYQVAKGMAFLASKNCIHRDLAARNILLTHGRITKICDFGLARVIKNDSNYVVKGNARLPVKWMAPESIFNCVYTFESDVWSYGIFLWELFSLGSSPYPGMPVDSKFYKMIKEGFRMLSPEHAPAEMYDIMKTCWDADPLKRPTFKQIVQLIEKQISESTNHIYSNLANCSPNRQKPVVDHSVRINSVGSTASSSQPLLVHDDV
# Chain of JAK2(h) (O60674 808-1132 limits assumed): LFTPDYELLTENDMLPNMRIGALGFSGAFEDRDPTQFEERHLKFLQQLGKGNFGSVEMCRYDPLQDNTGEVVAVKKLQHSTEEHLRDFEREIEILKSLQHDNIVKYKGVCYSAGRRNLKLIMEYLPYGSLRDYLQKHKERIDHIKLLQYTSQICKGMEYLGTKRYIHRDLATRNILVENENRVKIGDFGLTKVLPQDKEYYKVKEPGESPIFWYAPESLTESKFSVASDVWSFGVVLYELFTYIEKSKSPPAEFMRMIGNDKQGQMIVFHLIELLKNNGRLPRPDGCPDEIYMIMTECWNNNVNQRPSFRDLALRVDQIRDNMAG
Binder,% activity [1],% activity [2],% activity [3],% activity [4],% activity [5],% activity [6],% activity [7],% activity [8],% activity [9],% activity [10],% activity [11],% activity [12],% activity [13],% activity [14]
KAFAKLAARLYRKALARQLGVAA [MMI-0400],119%,74%,195%,101%,36%,8%,35%,43%,66%,63%,76%,79%,83%,97%
FAKLAARLYRKALARQLGVAA [MMI-0300],133%,77%,155%,90%,45%,5%,60%,91%,70%,117%,79%,89%,94%,104%
